Test results reported in patent publication US20080318868A1.

Legend:
[1] = molecular target: CS40 anti-ManLAM monoclonal antibody; test: competitive ELISA, ManLAM-coated plate, CS40 (1:2000) mixed with peptide
[2] = molecular target: CS40 anti-ManLAM monoclonal antibody; test: competitive ELISA, ManLAM-coated plate, CS40 (1:2000) mixed with peptide; at 50 µg/ml peptide

With ISLTEWSMWYRH [B11 synthetic peptide] the peptide concentration giving 100% decrease in OD [1] was 50 µg/mL and the decrease in OD (inhibition of CS40 binding to ManLAM) [2] was 100%.
